Assay results as given in PMC6197187.

Biological target: Recombinant human Tau-40 protein (human) (UniProt P10636)
Experiment: solution binding assay, then SDS-PAGE and western blotting; 1 µg tau and 1 µg recombinant apoE incubated 1 h at 37 °C in 20 µl PBS (pH 7.4); ended with sample buffer without 2-mercaptoethanol, boiled 5 min; immunoblot for tau (HT7) and apoE

Sequence of Recombinant human Tau-40 protein (human) (P10636 other isoform, or with tags, fused parts or gaps): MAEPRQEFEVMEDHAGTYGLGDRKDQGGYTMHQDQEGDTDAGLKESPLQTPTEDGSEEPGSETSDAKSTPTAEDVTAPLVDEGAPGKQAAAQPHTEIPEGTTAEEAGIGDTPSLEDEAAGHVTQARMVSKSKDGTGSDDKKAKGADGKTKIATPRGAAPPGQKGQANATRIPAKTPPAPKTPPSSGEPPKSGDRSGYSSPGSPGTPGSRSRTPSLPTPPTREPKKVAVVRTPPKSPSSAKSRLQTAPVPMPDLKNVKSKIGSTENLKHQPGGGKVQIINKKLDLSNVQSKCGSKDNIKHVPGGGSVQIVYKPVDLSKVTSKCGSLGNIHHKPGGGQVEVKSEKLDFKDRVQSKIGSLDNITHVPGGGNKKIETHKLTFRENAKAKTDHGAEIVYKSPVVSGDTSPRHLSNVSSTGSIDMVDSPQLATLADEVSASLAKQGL

N of band A: 2 tau per apoE
N of band B: 2 apoE per tau
Substance: Recombinant human apoE2 protein (from UniProt P02649 19-317) (natural protein)
